Measured values from patent US20230133118A1, “COMPOSITIONS AND METHODS FOR TREATING CANCER” (Adagene AG, priority 2020, published 2023).

Tests used:
4T1 breast cancer cells = experiment: 4T1 breast cancer model, ADG106 with docetaxel; assay type: in vivo, BALB/c mice; conditions: 5 mg/kg; ADG106 i.p. twice a week 4 doses, Docetaxel i.v. once a week 3 doses
Description: Tumor growth was monitored twice weekly and is reported as mean tumor volume ±SEM over time.

Lewis lung cancer cells = experiment: Lewis lung cancer model, ADG106 with cisplatin; assay type: in vivo, C57BL/6 mice; conditions: 5 mg/kg i.p.
Description: C57BL/6 mice (n=8 per group, female, 6-8 weeks old) were transplanted subcutaneously with 5×10^5 Lewis lung cancer cells. […] Tumor growth was monitored twice weekly and reported as mean tumor volume ±SEM over time.

LLC-CD20 cells = experiment: LLC-CD20 lung cancer model, ADG106 with rituximab; assay type: in vivo, C57BL/6 mice; conditions: 10 mg/kg i.p. twice a week for 3 weeks
Description: C57BL/6 mice (n=6 per group, female, 6-8 weeks old) were transplanted subcutaneously with 5×10^5 LLC-CD20 cells, a Lewis lung cancer cell line expressing CD20. […] Tumor growth was monitored twice weekly and reported as mean tumor volume ±SEM over time.

CD137 [1] = target: T1, CD137 (Homo sapiens, UniProt Q07011); experiment: Receptor occupancy calculated from drug plasma concentration and KD; conditions: 0.1 mg/kg, MTD for Urelumab
CD137 [2] = target: T1, CD137; experiment: Cellular NFκB reporter gene assay (CD137-expressing NFκB-Luc Jurkat reporter cells); assay type: cell-based; design: expressed in transfected cells; host or cells: NFκB-Luc Jurkat reporter cells (with or without co-cultured CHO-K1 cells expressing human FcγRIIb)
Description: The CD137-expressing NFκB-Luc Jurkat reporter cells were stimulated with the anti-CD137 antibodies in the absence (left panel) or presence (right panel) of co-cultured CHO-K1 cell expressing human FcγRIIb. Luciferase activity was measured by bioluminescence assay.

CD137 [3] = target: T1, CD137; experiment: Binding affinity (KD) by surface plasmon resonance (SPR); conditions: read-out: binding affinity (KD)

T1 sequence (Q07011 24-255): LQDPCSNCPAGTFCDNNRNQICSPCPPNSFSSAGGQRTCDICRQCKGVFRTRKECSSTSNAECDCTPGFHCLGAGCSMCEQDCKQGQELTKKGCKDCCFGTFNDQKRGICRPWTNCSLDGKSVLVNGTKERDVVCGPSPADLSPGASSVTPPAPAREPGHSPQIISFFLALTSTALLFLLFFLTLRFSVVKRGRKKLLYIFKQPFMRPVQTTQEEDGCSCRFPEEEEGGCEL

Molecule: CC(=O)O[C@@]12CO[C@@H]1C[C@H](O)[C@@]1(C)C(=O)[C@H](O)C3=C(C)[C@@H](OC(=O)[C@H](O)[C@@H](NC(=O)OC(C)(C)C)c4ccccc4)C[C@@](O)([C@@H](OC(=O)c4ccccc4)[C@H]21)C3(C)C [Docetaxel, docetaxel, reference compound]
- anti-tumor activity, mono-therapy (4T1 breast cancer cells): marginal anti-tumor activity

Molecule: N.N.[Cl][Pt][Cl] [cisplatin, reference compound]
- anti-tumor activity, monotherapy (Lewis lung cancer cells): showed anti-tumor activity

Molecule: Rituximab: anti-CD20 antibody [reference compound]
- tumor growth, single agent (LLC-CD20 cells): only weakly inhibited tumor growth

Molecule: Urelumab: clinical reference anti-CD137 mAb [reference compound]
- Calculated Receptor Occupancy (CD137 [1]): 64%
- human CD137 agonism without crosslinking (CD137 [2]; no crosslinking): function as a human CD137 agonist without crosslinking
- human CD137 agonism following crosslinking (CD137 [2]; with crosslinking): function as agonists
- Kd (CD137 [3]): 9.6 nM
